The values that follow come from US6545128 (BURNHAM INSTITUTE, dated 2003).

The experiment has as its target T1, 35S-labeled in vitro translated HA-tagged BI-2 (human, UniProt Q9NZS9 1-450, 35S-labeled methionine (in vitro translation)).
T1 construct: Made by TNT rabbit reticulocyte in vitro transcription/translation; also called HA-BI-2; not shown: three copies of the HA tag at the N-terminus (vector pSN503)
T1 sequence: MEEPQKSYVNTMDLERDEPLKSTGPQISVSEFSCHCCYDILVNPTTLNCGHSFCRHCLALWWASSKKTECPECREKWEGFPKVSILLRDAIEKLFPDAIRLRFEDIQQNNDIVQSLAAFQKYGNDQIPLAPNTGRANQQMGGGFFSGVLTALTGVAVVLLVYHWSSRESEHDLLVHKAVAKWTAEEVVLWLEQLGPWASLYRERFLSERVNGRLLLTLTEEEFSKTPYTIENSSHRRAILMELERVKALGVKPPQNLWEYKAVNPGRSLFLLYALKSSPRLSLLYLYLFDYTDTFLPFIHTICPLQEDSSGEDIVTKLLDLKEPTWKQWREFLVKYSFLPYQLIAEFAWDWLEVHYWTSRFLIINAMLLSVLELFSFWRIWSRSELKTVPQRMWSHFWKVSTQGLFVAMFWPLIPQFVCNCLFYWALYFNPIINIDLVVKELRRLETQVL
The experiment in a line: GST pull-down: about 5 ug GST fusion protein on glutathione SEPHAROSE, 35S-labeled in vitro translated HA-BI-2, SDS-PAGE and autoradiography. How it is done: Approximately 5 µg of the following fusion proteins, including GST control, GST-CD40 cytosolic domain, GST-Bcl-2, GST-Bax or GST-BI-2, were immobilized on glutathione SEPHAROSE, then 8 µl of ^35S-labeled in vitro translated HA-tagged BI-2 in binding buffer was added. After incubation at 4° C. for 2 hr, the beads were washed 5× with binding buffer and the associated proteins were eluted in Laemli sample buffer and analyzed by SDS-PAGE (10% gel). As a control, ^35S-labeled BI-2 was loaded directly into the gel, using one-quarter the amount employed for the binding experiments. Following electrophoresis, the gels were dried and exposed to X-ray film.

B1: GST-CD40 cytosolic domain (other, UniProt P25942 216-277, looked up)
chain: KKVAKKPTNKAPHPKQEPQEINFPDDLPGSNTAAPVQETLHGCQPVTQEDGKESRISVQERQ
notes: domain: cytosolic domain; Unrelated control protein; not shown: glutathione S-transferase (GST) fusion partner
In the case of B1, the binding result was “no binding”.
